One molecule from paper PMC3141782 (2011) can be followed below.

The target in this test is luteinizing hormone receptor (LHR) (Homo sapiens, UniProt P22888). Kind of test: [125I]-hCG binding to transfected SKOV-3 cells.
Chain of luteinizing hormone receptor (LHR) (P22888 27-699): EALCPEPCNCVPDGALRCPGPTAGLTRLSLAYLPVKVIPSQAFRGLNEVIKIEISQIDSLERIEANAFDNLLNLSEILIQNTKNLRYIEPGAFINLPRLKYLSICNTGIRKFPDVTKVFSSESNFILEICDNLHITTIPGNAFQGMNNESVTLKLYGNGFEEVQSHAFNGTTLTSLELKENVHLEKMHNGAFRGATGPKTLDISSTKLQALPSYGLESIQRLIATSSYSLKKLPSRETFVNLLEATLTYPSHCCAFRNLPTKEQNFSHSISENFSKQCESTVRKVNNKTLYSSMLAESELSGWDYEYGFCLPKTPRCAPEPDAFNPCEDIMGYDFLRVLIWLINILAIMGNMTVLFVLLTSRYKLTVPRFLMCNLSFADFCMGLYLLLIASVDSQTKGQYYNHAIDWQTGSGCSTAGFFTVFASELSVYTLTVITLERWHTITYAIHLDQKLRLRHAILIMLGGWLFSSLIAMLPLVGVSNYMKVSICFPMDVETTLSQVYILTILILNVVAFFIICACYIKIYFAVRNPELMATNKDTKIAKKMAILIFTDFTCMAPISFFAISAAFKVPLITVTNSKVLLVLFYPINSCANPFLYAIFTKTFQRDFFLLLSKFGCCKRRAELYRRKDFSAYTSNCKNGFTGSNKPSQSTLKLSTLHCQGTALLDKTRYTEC

B1: human chorionic gonadotropin (protein)
chain 1: not shown
chain 2: SKEPLRPRCRPINATLAVEKEGCPVCITVNTTICAGYCPTMTRVLQGVLPALPQVVCNYRDVRFESIRLPGCPRGVNPVVSYAVALSCQCALCRRSTTDCGGPKDHPLTCDDPRFQDSSSSKAPPPSLPSPSRLPGPSDTPILPQ
modifications: 125I-labelled hCG
As a reminder, the Kd is the equilibrium constant for the complex coming apart. A lower Kd goes with a tighter complex. With B1, the Kd came out at 0.3 nM.
